According to patent publication US20240148882A1 (University of California, published 2024):
One block for each binder: values may come before it.

Columns and labels:
[1] = biological target: T1, mvsFlt 650 kDa LCR (multivalent sFlt-hyaluronic acid conjugate, low conjugation ratio), P17948
T1 chain: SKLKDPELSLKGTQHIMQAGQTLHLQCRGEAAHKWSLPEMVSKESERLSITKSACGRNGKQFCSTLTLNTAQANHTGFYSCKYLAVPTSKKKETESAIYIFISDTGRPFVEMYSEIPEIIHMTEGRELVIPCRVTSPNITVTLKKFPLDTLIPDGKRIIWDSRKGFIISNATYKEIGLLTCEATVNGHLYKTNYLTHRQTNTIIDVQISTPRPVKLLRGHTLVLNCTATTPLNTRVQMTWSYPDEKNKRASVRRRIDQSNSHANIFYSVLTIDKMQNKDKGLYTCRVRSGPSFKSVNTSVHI

[2] = biological target: soluble fms-like tyrosine kinase-1 (sFlt), unconjugated (UniProt P17948); experiment: cell-based or functional assay
VEGF165 [3] = biological target: T2, VEGF165 (human, UniProt P15692 27-191); experiment: competition ELISA (unbound VEGF); multivalent HyA conjugate
T2 chain: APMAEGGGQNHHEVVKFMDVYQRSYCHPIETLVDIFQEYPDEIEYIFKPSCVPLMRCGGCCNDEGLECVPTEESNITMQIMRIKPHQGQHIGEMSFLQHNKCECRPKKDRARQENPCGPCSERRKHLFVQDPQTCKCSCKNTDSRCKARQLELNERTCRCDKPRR

VEGF165 [4] = biological target: T2, VEGF165; experiment: ELISA; multivalent CMC conjugate
VEGF165 [5] = biological target: T3, VEGF165 (human, UniProt P15692-4 27-191); experiment: cell-based or functional assay
VEGF165 [6] = biological target: T3, VEGF165; experiment: binding competition ELISA (VEGF165 Quantikine): free VEGF165 captured by the plate antibody
Description: The mvsFlt conjugates were analyzed using a VEGF₁₆₅ Quantikine Sandwich ELISA (R&D Systems) to examine the effect of HyA conjugation on sFlt inhibition of VEGF₁₆₅. The assay was carried out according to the manufacturer's instructions. Briefly, VEGF₁₆₅ was added to PBS with varying concentrations of sFlt or mysFlt. Free VEGF₁₆₅ that bound to the capture antibodies on the plate surface were detected using a horseradish peroxidase conjugated detection antibody and quantified using a spectrophotometer at 450 nm.

VEGF165 [7] = biological target: T2, VEGF165; experiment: ELISA
VEGF165 [8] = biological target: T2, VEGF165; experiment: competition ELISA (unbound VEGF)

B1: matrix metalloproteinase-7 (MMP-7) (protein)
chain: YSLFPNSPKWTSKVVTYRIVSYTRDLPHITVDRLVSKALNMWGKEIPLHFRKVVWGTADIMIGFARGAHGDSYPFDGPGNTLAHAFAPGTGLGGDAHFDEDERWTDGSSLGINFLYAATHELGHSLGMGHSSDPNAVMYPTYGNGDPQNFKLSQDDIKGIQKLYGKRSNSRKK
- protein remaining detectable after 12 h with MMP-7 at 1:1 molar ratio of MMP-7 to sFlt (SDS-PAGE, silver stain) [1]: 34.8±1.8% of mvsFlt
- protein remaining detectable after 12 h with MMP-7 at 1:4 molar ratio of MMP-7 to sFlt (SDS-PAGE, silver stain) [1]: detectable mvsFlt at 74.8±4.9%
- protein remaining detectable after 12 h with MMP-7 at 1:1 molar ratio of MMP-7 to sFlt (SDS-PAGE, silver stain) [2]: 6.8%
- protein remaining detectable after 12 h with MMP-7 at 1:4 molar ratio of MMP-7 to sFlt (SDS-PAGE, silver stain) [2]: 34%

B2: conjugated multivalent VHH anti-VEGF antibody (28 VHH per 860 kDa hyaluronic acid) (other)
VHH: SNADVQLVESGGGLVQPGGSLRLSCAASGRTFSSYSMGWFRQAPGKEREFVVAISKGGYKYDAVSLEGRFTISRDNAKNTVYLQINSLRPEDTAVYYCASSRAYGSSRLRLADTYEYWGQGTLVTVSSSPSTPPTPSPSTPPGGCDDDDKHHHHHH
modifications: covalently conjugated to 860 kDa hyaluronic acid
- IC50 (VEGF165 [3]): 812 nM

B3: anti-VEGF VHH-CMC conjugate (~17 VHH per ~700 kDa carboxymethylcellulose) (other)
VHH: B2 VHH
modifications: covalently conjugated to ~700 kDa carboxymethylcellulose
- IC50 (VEGF165 [4]): 8800 nM

B5: mvsFlt 1 MDa HCR (multivalent sFlt-hyaluronic acid conjugate, high conjugation ratio) (other, UniProt P17948 27-328, looked up)
chain: T1 chain
modifications: thiolated with 2-iminothiolane and linked through EMCH maleimide to 1 MDa hyaluronic acid
notes: domain: first 3 Ig-like extracellular domains; Protein-polymer conjugate; 30:1 sFlt:HyA feed ratio; final sFlt:HyA 14.1 by SEC-MALS; not shown: tag implied by Ni-NTA purification, not described
- IC50, HUVEC Survival (VEGF165 [5]): 0.0454 µg/mL
- IC50 (VEGF165 [6]): 0.0033 µg/mL

B12: conjugated multivalent scFv anti-VEGF antibody (31 scFv per 860 kDa hyaluronic acid) (other)
scFv: MEIVMTQSPSTLSASVGDRVIITCQASEIIHSWLAWYQQKPGKAPKLLIYLASTLASGVPSRFSGSGSGAEFTLTISSLQPDDFATYYCQNVYLASTNGANFGQGTKLTVLGGGGGSGGGGSGGGGSGGGGSEVQLVESGGGLVQPGGSLRLSCTASGFSLTDYYYMTWVRQAPGKGLEWVGFIDPDDDPYYATWAKGRFTISRDNSKNTLYLQMNSLRAEDTAVYYCAGGDHNSGWGLDIWGQGTLVTVSSSPSTPPTPSPSTPPGGCDDDDKHHHHHH
modifications: covalently conjugated to 860 kDa hyaluronic acid
- IC50 (VEGF165 [3]): 47.7 nM

Further lines, with some results ahead:

- IC50 (VEGF165 [6]): 0.0038 µg/mL
B4: soluble fms-like tyrosine kinase-1 (sFlt), unconjugated (receptor, UniProt P17948 27-328, looked up)
chain: T1 chain
notes: domain: first 3 Ig-like extracellular domains; Expressed in High Five insect cells, about 50 kDa; also called recombinant sFlt; soluble Flt-1 receptor; not shown: tag implied by Ni-NTA purification, not described for the tested protein (the ex)
- IC50, HUVEC Survival (VEGF165 [5]): 0.0393 µg/mL

- IC50 (VEGF165 [6]): 0.002 µg/mL
B6: mvsFlt 650 kDa HCR (multivalent sFlt-hyaluronic acid conjugate, high conjugation ratio) (other, UniProt P17948 27-328, looked up)
chain: T1 chain
modifications: thiolated with 2-iminothiolane and linked through EMCH maleimide to 650 kDa hyaluronic acid
notes: domain: first 3 Ig-like extracellular domains; Protein-polymer conjugate; 30:1 sFlt:HyA feed ratio; final sFlt:HyA 17.1 by SEC-MALS; not shown: tag implied by Ni-NTA purification, not described
- IC50, HUVEC Survival (VEGF165 [5]): 0.0432 µg/mL

- IC50 (VEGF165 [6]): 0.0045 µg/mL
B7: mvsFlt 300 kDa LCR (multivalent sFlt-hyaluronic acid conjugate, low conjugation ratio) (other, UniProt P17948 27-328, looked up)
chain: T1 chain
modifications: thiolated with 2-iminothiolane and linked through EMCH maleimide to 300 kDa hyaluronic acid
notes: domain: first 3 Ig-like extracellular domains; Protein-polymer conjugate; 10:1 sFlt:HyA feed ratio; final sFlt:HyA 7.9 by SEC-MALS; not shown: tag implied by Ni-NTA purification, not described
- IC50, HUVEC Survival (VEGF165 [5]): 0.0469 µg/mL

- IC50 (VEGF165 [6]): 0.0047 µg/mL
B8: mvsFlt 300 kDa HCR (multivalent sFlt-hyaluronic acid conjugate, high conjugation ratio) (other, UniProt P17948 27-328, looked up)
chain: T1 chain
modifications: thiolated with 2-iminothiolane and linked through EMCH maleimide to 300 kDa hyaluronic acid
notes: domain: first 3 Ig-like extracellular domains; Protein-polymer conjugate; 30:1 sFlt:HyA feed ratio; final sFlt:HyA 15.4 by SEC-MALS; not shown: tag implied by Ni-NTA purification, not described
- IC50, HUVEC Survival (VEGF165 [5]): 0.0444 µg/mL

- IC50 (VEGF165 [6]): 0.0022 µg/mL
B9: mvsFlt 1 MDa LCR (multivalent sFlt-hyaluronic acid conjugate, low conjugation ratio) (other, UniProt P17948 27-328, looked up)
chain: T1 chain
modifications: thiolated with 2-iminothiolane and linked through EMCH maleimide to 1 MDa hyaluronic acid
notes: domain: first 3 Ig-like extracellular domains; Protein-polymer conjugate; 10:1 sFlt:HyA feed ratio; final sFlt:HyA 5.2 by SEC-MALS; not shown: tag implied by Ni-NTA purification, not described
- IC50, HUVEC Survival (VEGF165 [5]): 0.0449 µg/mL

- IC50 (VEGF165 [6]): 0.0039 µg/mL
B10: mvsFlt 650 kDa LCR (multivalent sFlt-hyaluronic acid conjugate, low conjugation ratio) (other, UniProt P17948 27-328, looked up)
chain: T1 chain
modifications: thiolated with 2-iminothiolane and linked through EMCH maleimide to 650 kDa hyaluronic acid
notes: domain: first 3 Ig-like extracellular domains; Protein-polymer conjugate; 10:1 sFlt:HyA feed ratio; final sFlt:HyA 5.3 by SEC-MALS; also called 650 kDa LCR mvsFlt; not shown: tag implied by Ni-NTA purification, not described
- IC50, HUVEC Survival (VEGF165 [5]): 0.0417 µg/mL

- IC50 (VEGF165 [7]): 761 nM
- IC50 (VEGF165 [8]): 758 nM
B11: single-domain camelid (VHH) anti-VEGF antibody, unconjugated (VHH)
VHH: DVQLVESGGGLVQPGGSLRLSCAASGRTFSSYSMGWFRQAPGKEREFVVAISKGGYKYDAVSLEGRFTISRDNAKNTVYLQINSLRPEDTAVYYCASSRAYGSSRLRLADTYEYWGQGTLVTVSS

- IC50 (VEGF165 [8]): 89.8 nM
B13: single-chain variable fragment (scFv) anti-VEGF antibody, unconjugated (scFv)
scFv: B12 scFv
